Common to all, as to assay: PELDOR/DEER EPR; MTSSL-labelled protein reconstituted in soybean phosphatidylcholine liposomes (1:20 protein/lipid), 50 mM KPi pH 8.0, spin concentration 80-130 µM, 20% deuterated glycerol, Q-band, 50 K; monomer to dimer
For assay [1], the target named is SLC26Dg K353R1 (single-cysteine mutant K353C labelled with MTSSL) (Deinococcus geothermalis).
Assay [2] has as its target SLC26Dg L385R1 (single-cysteine mutant L385C labelled with MTSSL) (Deinococcus geothermalis).
Assay [3] has as its target SLC26Dg V367R1 (single-cysteine mutant V367C labelled with MTSSL) (Deinococcus geothermalis).

The source of these data is paper PMC6497670.

Broadly, the stoichiometry N is the number of molecules, sites or subunits per partner or assembly. The substance “SLC26Dg K353R1 (single-cysteine mutant K353C labelled with MTSSL) (natural protein)” registered a stoichiometry N in assay [1] of 2.

As to “SLC26Dg L385R1 (single-cysteine mutant L385C labelled with MTSSL) (natural protein)”, the stoichiometry N in assay [2] came to 2.

The substance “SLC26Dg V367R1 (single-cysteine mutant V367C labelled with MTSSL) (natural protein)” had a stoichiometry N in assay [3] of 2.
